Legend:
[1] = molecular target: T1, Mouse ECD TREM2-His (mouse, UniProt Q99NH8 19-171); assay: SPR (Biacore), 37 C, antibody captured on protein A, TREM2-His ECD analyte, 1:1 model
T1 construct: also called Mouse TREM2
T1 sequence: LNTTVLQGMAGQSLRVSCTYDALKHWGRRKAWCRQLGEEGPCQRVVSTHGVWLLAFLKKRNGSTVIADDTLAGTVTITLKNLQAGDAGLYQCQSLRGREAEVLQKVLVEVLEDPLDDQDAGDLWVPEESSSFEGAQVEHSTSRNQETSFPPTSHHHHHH
Procedure: (§1) The binding kinetics and affinity of TREM2 antibodies to human (SEQ ID NO: 11), mouse (SEQ ID NO: 12), rat (SEQ ID NO: 14), rabbit (SEQ ID NO: 13), or cynomolgus monkey (SEQ ID NO: 15) TREM2 extracellular domains (ECDs) fused to a C-terminal His tag are determined using surface plasmon resonance biosensor such as a BIAcore® T100, BIAcore® T200, or BIAcore® 8K (GE Healthcare, Piscataway, N .).
(§2) Samples are dissolved in 1xHBS-EP+running buffer (Teknova), and a protein A coupled CM5 Series S sensor chip (GE Healthcare) is utilized to capture antibody. Binding is evaluated using multiple analytical cycles. Each cycle is performed at 37° C. at a flow rate of 50 μl/min for antibody capture and 30 μl/min for ligand association and dissociation. Each cycle consists of the following: injection of 7 μl of 1 μg/ml antibody with the aim at a capture of 150-250 response units, injection of human, cynomolgus monkey, rabbit, rat, or mouse TREM2-His ECDs (starting at 20nM and using two-fold serial dilutions for each cycle) followed by 200 seconds for association, followed by 800 second dissociation phase, and regeneration using 10 mM glycine hydrochloride, pH 1.5 over a 30 second contact time. Association (i.e., kₒₙ) and dissociation rates (i.e., koff) for each cycle are evaluated using standard double referencing and fit to “1:1 (Langmuir) binding” model in the Biacore 8K evaluation in parallel kinetics batch mode. The affinity (KD) is calculated from the binding kinetics according to the relationship KD=Koff/Kₒₙ. Due to biphasic binding data for Reference Antibody A, a heterogenous ligand 2:1 binding modeling found in the Biacore 8K evaluation was used to calculate the KD. […] N=3 for Antibody 1 and Reference Antibody A, and n=1 for Reference Antibody B.

[2] = molecular target: T2, Cyno ECD TREM2-His (cynomolgus monkey); assay: as above
T2 construct: also called Cyno TREM2; cynomolgus monkey TREM2
T2 chain: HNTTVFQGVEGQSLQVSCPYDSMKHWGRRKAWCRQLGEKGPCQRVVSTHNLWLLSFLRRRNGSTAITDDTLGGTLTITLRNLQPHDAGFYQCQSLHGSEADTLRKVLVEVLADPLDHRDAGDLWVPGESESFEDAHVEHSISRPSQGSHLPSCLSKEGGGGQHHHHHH
Procedure: as §1, §2

[3] = molecular target: T3, Human ECD TREM2-His (human, UniProt Q9NZC2 19-174); assay: as above
T3 construct: also called Human TREM2; human TREM2 extracellular domain fused to a C-terminal His tag
T3 sequence: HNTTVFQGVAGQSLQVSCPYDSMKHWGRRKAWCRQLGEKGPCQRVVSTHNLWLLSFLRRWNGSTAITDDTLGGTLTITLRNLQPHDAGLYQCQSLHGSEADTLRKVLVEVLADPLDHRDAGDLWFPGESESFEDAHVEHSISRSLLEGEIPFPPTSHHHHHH
Procedure: as §1, §2

[4] = molecular target: T4, Human TREM2 R47H (human, UniProt Q9NZC2 19-174, limits assumed); assay: SPR (Biacore), 37 C, antibody captured on protein A, TREM2 R47H analyte, 1:1 model
T4 construct: also called human R47H TREM mutant; R47H TREM
T4 sequence (looked up): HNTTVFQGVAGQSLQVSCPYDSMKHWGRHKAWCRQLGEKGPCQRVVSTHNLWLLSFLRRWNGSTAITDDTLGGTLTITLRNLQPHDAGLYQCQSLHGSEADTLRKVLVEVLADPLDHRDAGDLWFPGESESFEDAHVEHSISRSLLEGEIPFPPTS

[5] = molecular target: T1, Mouse ECD TREM2-His; assay: SPR (Biacore), 25 C; 25 C; mouse TREM2
[6] = molecular target: T3, Human ECD TREM2-His; assay: SPR (Biacore), 25 C; 25 C; human TREM2
[7] = molecular target: T5, human TREM2 expressed on BW5147.G.1.4 cells (human, UniProt Q9NZC2 19-230); assay: cell-based or functional assay
T5 sequence (looked up): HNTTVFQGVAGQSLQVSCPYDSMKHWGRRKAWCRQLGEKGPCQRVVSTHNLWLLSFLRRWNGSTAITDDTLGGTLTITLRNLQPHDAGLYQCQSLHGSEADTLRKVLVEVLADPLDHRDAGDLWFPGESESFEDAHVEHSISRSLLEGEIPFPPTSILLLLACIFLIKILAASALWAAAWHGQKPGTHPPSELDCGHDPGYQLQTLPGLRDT

[8] = molecular target: T2, Cyno ECD TREM2-His; assay: SPR (Biacore), 25 C; 25 C; cynomolgus TREM2
[9] = molecular target: T5, human TREM2 expressed on BW5147.G.1.4 …; assay: flow cytometry (MFI) on BW5147.G.1.4 cells expressing human TREM2 and DAP12, anti-human IgG Alexa Fluor 647 detection
Procedure: To investigate whether Antibody 1 binds to TREM2-expressing cells, a binding experiment is performed. BW5147.G.1.4 cell line is transduced to express human TREM2 and its adapter […] adapter protein 12 (DAP12). To assess binding, 500,000 cells are incubated in the presence of Antibody 1 with a 3-fold 12-point titration starting at 30 μg/ml for 30 minutes at 37° C. Antibody binding is detected using goat anti-human IgG Alexa Fluor 647 (Jackson Labs). Mean fluorescence intensity (MFI) is measured using an Accuri C6 Plus flow cytometer (BD Biosciences).

[10] = molecular target: T4, Human TREM2 R47H; assay: SPR (Biacore), 25 C; 25 C; human TREM2 R47H
[11] = molecular target: T6, Rabbit ECD TREM2-HIS (rabbit); assay: SPR (Biacore), 37 C, antibody captured on protein A, TREM2-His ECD as analyte
T6 construct: also called rabbit TREM2
T6 chain: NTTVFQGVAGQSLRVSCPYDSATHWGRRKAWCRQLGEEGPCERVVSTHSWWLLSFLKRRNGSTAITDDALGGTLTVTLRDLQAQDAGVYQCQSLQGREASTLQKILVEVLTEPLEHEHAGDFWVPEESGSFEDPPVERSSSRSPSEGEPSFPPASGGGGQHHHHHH
Procedure: as §1
(§3) Samples are dissolved in 1xHBS-EP+running buffer (Teknova), and a protein A coupled CM5 Series S sensor chip (GE Healthcare) is utilized to capture antibody. Binding is evaluated using multiple analytical cycles. Each cycle is performed at 37° C. at a flow rate of 50 μl/min for antibody capture and 30 μl/min for ligand association and dissociation. […] Association (i.e., kₒₙ) and dissociation rates (i.e., koff) for each cycle are evaluated using standard double referencing and fit to “1:1 (Langmuir) binding” model in the Biacore 8K evaluation in parallel kinetics batch mode. The affinity (KD) is calculated from the binding kinetics according to the relationship KD=Koff/Kₒₙ. […]

[12] = molecular target: T7, Rat ECD TREM2-His (rat); assay: as above
T7 construct: also called Rat TREM2
T7 chain: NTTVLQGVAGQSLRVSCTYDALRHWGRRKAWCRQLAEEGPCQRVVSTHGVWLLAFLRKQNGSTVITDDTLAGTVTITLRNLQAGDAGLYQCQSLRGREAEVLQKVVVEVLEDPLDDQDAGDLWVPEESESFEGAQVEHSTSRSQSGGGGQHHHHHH
Procedure: as §1, §3

B1: TREM2 Antibody 1 (antibody, human IgG4 S228P, kappa, F234A L235A, V domains shown)
VH: EVQLVQSGAEVKKPGESLKISCKGSGFSFNTYWIGWVRQMPGKGLEWMGIIYPGDQDIRYSPSFQGQVTISADKSISTAYLQWSSLKASDTAMYYCARYGRYIYGYGGYHGMDVWGQGTTVTVSS
VL: DIQMTQSPSSLSASVGDRVTITCRASQAIRDDLGWYQQKPGKAPKLLIYAASSLQSGVPSRFSGSGSGTDFTLTISSLQPEDFATYYCLQNYNYPHTFGQGTKLEIKR
notes: Human antibody with a kappa light chain
[1]
  Kd: 1600 pM
  koff: 0.044 s⁻¹
  kon: 2.5e+07 M⁻¹ s⁻¹
[2]
  Kd: 75 pM
  koff: 0.00037 s⁻¹
  kon: 5e+06 M⁻¹ s⁻¹
[3]
  Kd: 170 pM
  koff: 0.00058 s⁻¹
  kon: 3.4e+06 M⁻¹ s⁻¹
[4]
  Kd: 75 pM
  koff: 0.00037 s⁻¹
  kon: 5e+06 M⁻¹ s⁻¹
[5]
  Kd: 3900 pM
[6]
  Kd: 150 pM
[7]
  IC50 of inhibition of PS-mediated NFAT activation (luciferase reporter cells): 0.4 µg/mL
[8]
  Kd: 43 pM
[9]
  EC50: 0.08 µg/mL
[10]
  Kd: 290 pM
[11]
  binding result: no binding
[12]
  binding result: no binding (tested: 200 nM TREM2)
